Measured values taken from publication PMC3561149, “Bifurcation of Arabidopsis NLR Immune Signaling via Ca2+-Dependent Protein Kinases”.
Where a chain is given by its changes, count along the chain named.

B1: W-boxes probe (four W-boxes of WRKY46 promoter) (dsDNA)
DNA 1: CTGTCAATTCTTTGACCCCAGTTGACGAATGTCAATT
DNA 2: AATTGACATTCGTCAACTGGGGTCAAAGAATTGACAG
B2: unlabeled W-boxes oligonucleotide (specific competitor) (dsDNA)
DNA 1: B1 DNA 1
DNA 2: B1 DNA 2
B3: mW-boxes probe (mutated W-boxes) (dsDNA)
DNA 1: B1 DNA 1 with G3T, C16A, C26A, G31T
DNA 2: B1 DNA 2 with C7A, G12T, G22T, C35A

What was measured:
MBP-WRKY48 [1] = target: T1, MBP-WRKY48 (Arabidopsis thaliana (Col-0), UniProt Q9FGZ4 1-399); assay: EMSA; unphosphorylated; EMSA: 5x binding buffer (4% glycerol, 1 mM MgCl2, 0.5 mM EDTA, 0.5 mM DTT, 10 mM Tris-HCl pH 7.5), 1 ug poly-dIdC, BSA, 2.5 ug protein, ~20,000 cpm probe, room; conditions: protein: recombinant; tags: MBP (pMAL-C2); label: 32P 5' end label
T1 sequence (Q9FGZ4 whole entry): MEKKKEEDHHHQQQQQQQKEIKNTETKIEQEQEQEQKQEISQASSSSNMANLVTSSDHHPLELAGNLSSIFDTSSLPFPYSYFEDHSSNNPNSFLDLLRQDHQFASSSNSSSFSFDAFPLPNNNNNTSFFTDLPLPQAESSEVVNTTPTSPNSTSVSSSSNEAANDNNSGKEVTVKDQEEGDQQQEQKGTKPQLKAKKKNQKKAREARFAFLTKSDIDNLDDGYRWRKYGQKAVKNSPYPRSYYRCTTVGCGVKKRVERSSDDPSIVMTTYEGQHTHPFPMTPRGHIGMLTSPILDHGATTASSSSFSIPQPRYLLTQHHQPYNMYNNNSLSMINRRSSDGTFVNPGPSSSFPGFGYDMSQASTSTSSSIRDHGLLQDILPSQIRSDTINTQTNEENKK

MBP-WRKY48 [2] = target: T1, MBP-WRKY48; assay: competition; unlabeled competitor vs labeled W-boxes; binding largely reduced; EMSA: 5x binding buffer (4% glycerol, 1 mM MgCl2, 0.5 mM EDTA, 0.5 mM DTT, 10 mM Tris-HCl pH 7.5), 1 ug poly-dIdC, BSA, 2.5 ug protein, ~20,000 cpm probe, room; conditions: protein: recombinant; tags: MBP (pMAL-C2); label: none

| Binder | binding result (MBP-WRKY48 [1]) | binding result (MBP-WRKY48 [2]) |
| --- | --- | --- |
| B1 | binds | – |
| B2 | – | binds |
| B3 | no binding | – |
